{"source": "patent US20180196058A1", "molecular_target": "Recombinant human IFN-gamma (eBioscience) (human) (UniProt P01579)", "sequence (P01579 24-166 limits assumed)": "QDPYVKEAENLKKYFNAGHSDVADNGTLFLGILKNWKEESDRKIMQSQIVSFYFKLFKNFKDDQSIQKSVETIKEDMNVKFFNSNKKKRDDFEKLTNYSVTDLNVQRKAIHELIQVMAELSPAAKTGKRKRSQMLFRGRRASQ", "test": "sandwich on beads, LC MS/MS of released iCOREs; IFN-gamma iCORE peak against the peak of the iCORE on the anti-TNF-alpha detection antibody"}
{"substance": "iCORE-labeled detection antibody against human IFN-gamma, clone 4S.B3 (eBioscience)", "values": [{"measurement": "signal to noise", "result": 10}]}
